Molecular target: T1, CRB1-FLAG p.C1181R (human, UniProt P82279 26-1406, p.C1181R)
T1 construct: Made by site-directed mutagenesis of m1; also called CRB1 p.C1181R; CRB1-FLAG MT; source: HEK293T, transfected, in lysate; not shown: Strep-Strep-FLAG, N-terminal, kept
T1 sequence (looked up): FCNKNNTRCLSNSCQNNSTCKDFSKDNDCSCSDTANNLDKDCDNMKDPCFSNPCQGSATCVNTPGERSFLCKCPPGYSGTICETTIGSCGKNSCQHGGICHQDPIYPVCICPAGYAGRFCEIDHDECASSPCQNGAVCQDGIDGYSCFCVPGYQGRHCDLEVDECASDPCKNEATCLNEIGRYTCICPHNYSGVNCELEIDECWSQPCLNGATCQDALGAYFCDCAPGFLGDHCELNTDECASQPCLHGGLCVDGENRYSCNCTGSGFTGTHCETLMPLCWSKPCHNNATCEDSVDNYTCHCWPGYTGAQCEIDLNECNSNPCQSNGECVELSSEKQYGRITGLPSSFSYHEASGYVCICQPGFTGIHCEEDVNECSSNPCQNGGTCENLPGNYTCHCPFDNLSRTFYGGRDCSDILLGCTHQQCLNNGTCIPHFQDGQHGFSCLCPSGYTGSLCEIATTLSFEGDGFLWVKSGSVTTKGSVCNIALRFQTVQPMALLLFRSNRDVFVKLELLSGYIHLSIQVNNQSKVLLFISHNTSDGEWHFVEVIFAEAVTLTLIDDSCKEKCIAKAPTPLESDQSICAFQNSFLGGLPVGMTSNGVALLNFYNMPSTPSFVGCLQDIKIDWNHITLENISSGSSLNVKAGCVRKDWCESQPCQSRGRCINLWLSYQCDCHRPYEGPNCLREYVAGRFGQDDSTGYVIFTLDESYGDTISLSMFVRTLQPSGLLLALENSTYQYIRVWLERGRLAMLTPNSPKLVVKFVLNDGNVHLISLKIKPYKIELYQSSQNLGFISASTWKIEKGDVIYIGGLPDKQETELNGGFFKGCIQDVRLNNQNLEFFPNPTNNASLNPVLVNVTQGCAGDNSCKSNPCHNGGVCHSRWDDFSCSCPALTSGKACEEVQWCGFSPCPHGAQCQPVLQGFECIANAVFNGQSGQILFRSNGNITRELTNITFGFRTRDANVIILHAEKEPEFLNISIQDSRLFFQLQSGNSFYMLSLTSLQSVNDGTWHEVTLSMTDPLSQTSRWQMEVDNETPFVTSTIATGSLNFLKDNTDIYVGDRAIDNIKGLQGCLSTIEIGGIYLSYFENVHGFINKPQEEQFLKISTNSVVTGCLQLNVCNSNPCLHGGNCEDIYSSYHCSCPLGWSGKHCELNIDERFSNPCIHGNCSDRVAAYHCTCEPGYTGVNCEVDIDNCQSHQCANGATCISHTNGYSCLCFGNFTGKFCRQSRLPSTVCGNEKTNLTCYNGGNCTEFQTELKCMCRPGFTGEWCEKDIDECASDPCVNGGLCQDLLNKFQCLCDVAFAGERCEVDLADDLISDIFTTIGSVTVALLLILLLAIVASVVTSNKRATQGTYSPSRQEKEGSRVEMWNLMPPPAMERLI
Assay: co-IP; HEK293T cells co-transfected pairwise with a FLAG and an HA construct, 48 h; lysis in TBS (30 mM Tris-HCl pH 7.4, 150 mM NaCl) with 0.5% Nonidet P40; FLAG-IP on ANTI-FLAG M2 Affinity Gel 60-90 min at 4°C, elution with FLAG peptide; Western blot with HA and FLAG antibodies; for mutants HA/FLAG signal in eluates relative to WT, three biological replicates
Conditions: partners not purified

B1: Human canonical CRB2 (Crumbs homolog 2) (natural protein)
chain: not shown
notes: Crumbs homolog 2, human, cDNA NM_173689; Stood as bait (FLAG copy) and as prey (HA copy) in the pairwise co-IP matrix; each copy carries only one of the two tags; The FLAG copy was the bait of the mass spectrometry pull-downs; also called CRB2-FLAG; CRB2-HA; source: HEK293T, transfected, in lysate (co-IP); HEK293T, transfected, FLAG-IP on beads, washed and purified with 0.01% SDS (retina …)
percent reduction of the interaction relative to CRB1 WT: 19%

From PMC10992996, “Human CRB1 and CRB2 form homo- and heteromeric protein complexes in the retina” (Life Science Alliance, 2024)
